Measurements published in publication PMC8888459 (2022).

T1: NIA complex (Nfs1–Isd11–ACPEc) (S. cerevisiae | E. coli (endogenous in …, UniProt P25374 37-497; Q6Q560 1-94; P0A6A8 1-78)
T1 chain 1: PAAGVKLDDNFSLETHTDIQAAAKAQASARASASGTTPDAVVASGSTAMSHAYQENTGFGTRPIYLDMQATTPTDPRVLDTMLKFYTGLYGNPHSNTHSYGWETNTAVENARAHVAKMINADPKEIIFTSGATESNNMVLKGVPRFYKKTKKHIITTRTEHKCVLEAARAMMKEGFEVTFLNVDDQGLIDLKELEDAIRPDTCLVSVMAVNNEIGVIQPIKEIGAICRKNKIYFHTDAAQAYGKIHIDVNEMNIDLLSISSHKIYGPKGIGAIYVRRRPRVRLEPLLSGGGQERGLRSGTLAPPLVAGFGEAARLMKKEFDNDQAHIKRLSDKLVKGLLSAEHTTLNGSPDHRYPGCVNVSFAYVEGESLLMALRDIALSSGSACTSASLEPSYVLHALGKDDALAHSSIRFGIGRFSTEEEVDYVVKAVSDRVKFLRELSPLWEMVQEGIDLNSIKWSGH
T1 chain 2: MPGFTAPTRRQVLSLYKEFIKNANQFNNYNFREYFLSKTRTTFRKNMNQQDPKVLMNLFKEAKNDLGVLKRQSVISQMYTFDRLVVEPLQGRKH
T1 chain 3: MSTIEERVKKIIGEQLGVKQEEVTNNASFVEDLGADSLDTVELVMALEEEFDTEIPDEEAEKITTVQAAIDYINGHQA

B1: NIA–Isu1 complex with S. cerevisiae Isu1 (complex)
chain 1: T1 chain 1
chain 2: T1 chain 2
chain 3: T1 chain 3
chain 4: SSITKRLYHPKVIEHYTHPRNVGSLDKKLPNVGTGLVGAPACGDVMRLQIKVNDSTGVIEDVKFKTFGCGSAIASSSYMTELVQGMTLDDAAKIKNTEIAKELSLPPVKLHCSMLAEDAIKAAIKDYKSKRNTPTMLS
B2: Yah1-GST fusion protein (natural protein)
chain: IAAHLLRTSPSLLTRTTTTTRFLPFSTSSFLNHGHLKKPKPGEELKITFILKDGSQKTYEVCEGETILDIAQGHNLDMEGACGGSCACSTCHVIVDPDYYDALPEPEDDENDMLDLAYGLTETSRLGCQIKMSKDIDGIRVALPQMTRNVNNNDFS
B3: Yah1 (untagged, holo) (natural protein)
chain: B2 chain

Experiments:
Yah1-GST fusion protein [1] = molecular target: B2; assay: BLI; KD2 of 2:1 heterogeneous ligand fit (62%), second site
Yah1-GST fusion protein [2] = molecular target: B2; assay: BLI; kd2 of 2:1 fit, second site
Yah1-GST fusion protein [3] = molecular target: B2; assay: BLI; anaerobic, reduced Yah1 (Fig. 6C); KD2 of 2:1 fit (55%), second site
Yah1-GST fusion protein [4] = molecular target: B2; assay: BLI; anaerobic, reduced Yah1; KD2 of 2:1 fit (63%), second site
Yah1-GST fusion protein [5] = molecular target: B2; assay: BLI; KD1 of 2:1 heterogeneous ligand fit (38%)
Yah1-GST fusion protein [6] = molecular target: B2; assay: BLI; anaerobic, reduced Yah1 (Fig. 6C); KD1 of 2:1 fit (45%)
Yah1-GST fusion protein [7] = molecular target: B2; assay: BLI; anaerobic, reduced Yah1 (Fig. 6C); kd2 of 2:1 fit, second site
Yah1-GST fusion protein [8] = molecular target: B2; assay: BLI; kd1 of 2:1 fit
Yah1-GST fusion protein [9] = molecular target: B2; assay: BLI; anaerobic, reduced Yah1; KD1 of 2:1 fit (37%)
Yah1-GST fusion protein [10] = molecular target: B2; assay: BLI; anaerobic, reduced Yah1 (Fig. 6C); kd1 of 2:1 fit
Yah1-GST fusion protein [11] = molecular target: B2; assay: BLI; anaerobic, reduced Yah1; kd1 of 2:1 fit
Yah1-GST fusion protein [12] = molecular target: B2; assay: BLI; anaerobic, reduced Yah1; kd2 of 2:1 fit, second site
[13] = molecular target: T2, NIA–Isu1 complex with C. thermophilum Isu1 (S. cerevisiae | E. coli (endogenous in …, UniProt P25374 37-497; Q6Q560 1-94; P0A6A8 1-78); assay: BLI; KD1 of 2:1 heterogeneous ligand fit (46%)
[14] = molecular target: T2, NIA–Isu1 complex with C. thermophilum …; assay: BLI; kd1 of 2:1 fit
[15] = molecular target: T2, NIA–Isu1 complex with C. thermophilum …; assay: BLI; kd1 of 2:1 fit; remark: listed apart in the source
[16] = molecular target: T2, NIA–Isu1 complex with C. thermophilum …; assay: BLI; KD2 of 2:1 heterogeneous ligand fit (57%), second site
[17] = molecular target: T2, NIA–Isu1 complex with C. thermophilum …; assay: BLI; kd2 of 2:1 fit, second site
[18] = molecular target: T2, NIA–Isu1 complex with C. thermophilum …; assay: BLI; kd2 of 2:1 fit, second site; remark: listed apart in the source
[19] = molecular target: T2, NIA–Isu1 complex with C. thermophilum …; assay: BLI; KD2 of 2:1 heterogeneous ligand fit (54%), second site
[20] = molecular target: T2, NIA–Isu1 complex with C. thermophilum …; assay: BLI; KD1 of 2:1 heterogeneous ligand fit (43%)
[21] = molecular target: T1, NIA complex (Nfs1–Isd11–ACPEc); assay: BLI; kd1 of 2:1 fit
[22] = molecular target: T1, NIA complex (Nfs1–Isd11–ACPEc); assay: BLI; KD2 of 2:1 heterogeneous ligand fit (39%), second site
[23] = molecular target: T1, NIA complex (Nfs1–Isd11–ACPEc); assay: BLI; KD1 of 2:1 heterogeneous ligand fit (61%)
[24] = molecular target: T1, NIA complex (Nfs1–Isd11–ACPEc); assay: BLI; kd2 of 2:1 fit, second site

Binder: B1
Kd (Yah1-GST fusion protein [1]): 660 nM
koff (Yah1-GST fusion protein [2]): 0.0375 s⁻¹
Kd (Yah1-GST fusion protein [3]): 19.2 nM
Kd (Yah1-GST fusion protein [4]): 15.3 nM
Kd (Yah1-GST fusion protein [5]): 325 nM
Kd (Yah1-GST fusion protein [6]): 0.02 nM
koff (Yah1-GST fusion protein [7]): 0.00777 s⁻¹
koff (Yah1-GST fusion protein [8]): 0.000977 s⁻¹
Kd (Yah1-GST fusion protein [9]): 0.0165 nM
koff (Yah1-GST fusion protein [10]): 4.99e-07 s⁻¹
koff (Yah1-GST fusion protein [11]): 4.05e-07 s⁻¹
koff (Yah1-GST fusion protein [12]): 0.00421 s⁻¹

Binder: B2
Kd [13]: 228 nM
koff [14]: 0.00167 s⁻¹
koff [15]: 0.00118 s⁻¹
Kd [16]: 800 nM
koff [17]: 0.109 s⁻¹
koff [18]: 0.0403 s⁻¹
Kd [19]: 212 nM
Kd [20]: 184 nM

Binder: B3
koff [21]: 2.08e-07 s⁻¹
Kd [22]: 544 nM
Kd [23]: 0.307 nM
koff [24]: 0.00156 s⁻¹
